In paper PMC6935017 (Cell, 2018):

B1: Streptococcus thermophilus Csm3 (natural protein, Streptococcus thermophilus ND03)
chain: MTFAKIKFSAQIRLETGLHIGGSDAFAAIGAIDSPVIKDPITNIPIIPGSSLKGKMRTLLAKVYNEKVAEKPSDDSDILSRLFGNSKDKRFKMGRLIFRDAFLSNADELDSLGVRSYTEVKFENTIDRITAEANPRQIERAIRNSTFDFELIYEITDENENQVEEDFKVIRDGLKLLELDYLGGSGSRGYGKVAFEKLKATTVFGNYDVKTLNELLTAEV
B2: Streptococcus thermophilus Csm2 (natural protein, Streptococcus thermophilus ND03, UniProt A0A0A7HIX1 1-121, looked up)
chain: MAILTDENYVDKAERAISLLEKDNKGNYLLTTSQIRKLLSLCSSLYDRSKERKFDELINDVSYLRVQFVYQAGREIAVKDLIEKAQILEALKEIKDRETLQRFCRYMEALVAYFKFYGGKD

Molecular target: the molecule itself
Assay: crystal structure

Protein	stoichiometry N
B1	3
B2	2
